Assay results taken from article PMC6770189, “Multipoint TvDAAO Mutants for Cephalosporin C Bioconversion” (International Journal of Molecular Sciences, 2019).

Tests used:
TvDAAO = biological target: T1, TvDAAO (Trigonopsis variabilis, UniProt Q99042); experiment: horseradish peroxidase / ABTS coupled assay, […] nm; format: biochemical; settings: 0.05 M potassium phosphate pH 8.0, 30 °C, air saturated; read-out: wt-TvDAAO / KM
T1 construct: gene DAO1; FAD-containing; no tag mentioned

[1] = substrate: [H][C@]12SCC(COC(C)=O)=C(C(=O)O)N1C(=O)[C@H]2NC(=O)CCC[C@@H](N)C(=O)O; experiment: CPC consumption by HPLC, initial rates; format: biochemical, Trigonopsis variabilis; settings: 0.1 M potassium phosphate pH 8.0, 30 °C, air saturated
Excerpt: CPC consumption by HPLC, initial rates on TvDAAO

purified protein [2] = substrate: CSCC[C@@H](N)C(=O)O; experiment: purified protein; format: biochemical, Trigonopsis variabilis; settings: 0.05 M potassium phosphate pH 8.0, 30 °C, air saturated
purified protein [3] = substrate: C[C@@H](N)C(=O)O; experiment: purified protein; settings: 0.05 M potassium phosphate pH 8.0, 30 °C, air saturated
purified protein [4] = substrate: CC(C)[C@@H](N)C(=O)O; experiment: purified protein; settings: 0.05 M potassium phosphate pH 8.0, 30 °C, air saturated
purified protein [5] = substrate: CC(C)C[C@@H](N)C(=O)O; experiment: purified protein; settings: 0.05 M potassium phosphate pH 8.0, 30 °C, air saturated
purified protein [6] = substrate: NC(=O)C[C@@H](N)C(=O)O; experiment: purified protein; settings: 0.05 M potassium phosphate pH 8.0, 30 °C, air saturated

| Molecule | Km (TvDAAO) [µM] | Km [1] [mM] | kcat [1] [s⁻¹] | kcat/Km [1] [M⁻¹ s⁻¹] | other results |
| --- | --- | --- | --- | --- | --- |
| CSCC[C@@H](N)C(=O)O [D-Met] | 460 |  |  |  |  |
| NCCCC[C@@H](N)C(=O)O [D-Lys] | 29000 |  |  |  |  |
| C[C@H](O)[C@@H](N)C(=O)O [D-Thr] | 11000 |  |  |  |  |
| N[C@H](Cc1ccc(O)cc1)C(=O)O [D-Tyr] | 450 |  |  |  |  |
| N[C@H](Cc1c[nH]c2ccccc12)C(=O)O [D-Trp] | 490 |  |  |  |  |
| N[C@H](CO)C(=O)O [D-Ser] | 37000 |  |  |  |  |
| N[C@H](Cc1ccccc1)C(=O)O [D-Phe] | 370 |  |  |  |  |
| TvDAAO (Trigonopsis variabilis; C108F/C298Q/E32R/F33D/F54S/M156L) (protein, FAD-containing; no tag mentioned) MAKIVVIGAGVAGLTTALQLLRKGHEVTIVSRDTPGDLSIGYTSPWAGANWLTSYDGGKLADYDAVSYPILRELARSSPEAGIRLISQRSHVLKRDLPKLEVAMSAIFQRNPWFKNTVDSFEIIEDRSRIVHDDVAYLVEFRSVCIHTGVYLNWLLSQCLSLGATVVKRRVNHIKDANLLHSSGSRPDVIVNCSGLFARFLGGVEDKKMYPIRGQVVLVRNSLPFMASFSSTPEKENEDEALYIMTRFDGTSIIGGCFQPNNWSSEPDPSLTHRILSRALDRFPELTKDGPLDIVREQVGHRPGREGGPRVELEKIPGVGFVVHNYGAAGAGYQSSYGMADEAVSYVERALTRPNL |  | 1.4 ± 0.3 | 68 ± 0.5 | 50000 ± 9000 |  |
| TvDAAO (Trigonopsis variabilis; C108F/C298N/E32R/F33D/F54S/M156L) (protein, FAD-containing; no tag mentioned) MAKIVVIGAGVAGLTTALQLLRKGHEVTIVSRDTPGDLSIGYTSPWAGANWLTSYDGGKLADYDAVSYPILRELARSSPEAGIRLISQRSHVLKRDLPKLEVAMSAIFQRNPWFKNTVDSFEIIEDRSRIVHDDVAYLVEFRSVCIHTGVYLNWLLSQCLSLGATVVKRRVNHIKDANLLHSSGSRPDVIVNCSGLFARFLGGVEDKKMYPIRGQVVLVRNSLPFMASFSSTPEKENEDEALYIMTRFDGTSIIGGCFQPNNWSSEPDPSLTHRILSRALDRFPELTKDGPLDIVRENVGHRPGREGGPRVELEKIPGVGFVVHNYGAAGAGYQSSYGMADEAVSYVERALTRPNL |  | 2.9 ± 0.5 | 121 ± 15 | 42000 ± 8000 | Km (purified protein [2]): 1.4 mM; kcat (purified protein [2]): 41 s⁻¹ |
| TvDAAO (Trigonopsis variabilis) (protein, FAD-containing; no tag mentioned) MAKIVVIGAGVAGLTTALQLLRKGHEVTIVSEFTPGDLSIGYTSPWAGANWLTFYDGGKLADYDAVSYPILRELARSSPEAGIRLISQRSHVLKRDLPKLEVAMSAICQRNPWFKNTVDSFEIIEDRSRIVHDDVAYLVEFRSVCIHTGVYLNWLMSQCLSLGATVVKRRVNHIKDANLLHSSGSRPDVIVNCSGLFARFLGGVEDKKMYPIRGQVVLVRNSLPFMASFSSTPEKENEDEALYIMTRFDGTSIIGGCFQPNNWSSEPDPSLTHRILSRALDRFPELTKDGPLDIVRECVGHRPGREGGPRVELEKIPGVGFVVHNYGAAGAGYQSSYGMADEAVSYVERALTRPNL |  | 1.4 ± 0.4 | 26 ± 3 | 18000 ± 5000 | Km (purified protein [3]): 17 mM; kcat (purified protein [3]): 109 s⁻¹; Km (purified protein [4]): 14 mM; kcat (purified protein [4]): 85 s⁻¹; Km (purified protein [5]): 0.40 mM; kcat (purified protein [5]): 29 s⁻¹; Km (purified protein [6]): 23 mM; kcat (purified protein [6]): 62 s⁻¹ |
| TvDAAO (Trigonopsis variabilis; C108F/E32R/F33D/F54S) (protein, FAD-containing; no tag mentioned) MAKIVVIGAGVAGLTTALQLLRKGHEVTIVSRDTPGDLSIGYTSPWAGANWLTSYDGGKLADYDAVSYPILRELARSSPEAGIRLISQRSHVLKRDLPKLEVAMSAIFQRNPWFKNTVDSFEIIEDRSRIVHDDVAYLVEFRSVCIHTGVYLNWLMSQCLSLGATVVKRRVNHIKDANLLHSSGSRPDVIVNCSGLFARFLGGVEDKKMYPIRGQVVLVRNSLPFMASFSSTPEKENEDEALYIMTRFDGTSIIGGCFQPNNWSSEPDPSLTHRILSRALDRFPELTKDGPLDIVRECVGHRPGREGGPRVELEKIPGVGFVVHNYGAAGAGYQSSYGMADEAVSYVERALTRPNL |  | 1.9 ± 0.4 | 88 ± 10 | 45000 ± 11000 |  |
| TvDAAO (Trigonopsis variabilis; C108F/F54S/M156L) (protein, FAD-containing; no tag mentioned) MAKIVVIGAGVAGLTTALQLLRKGHEVTIVSEFTPGDLSIGYTSPWAGANWLTSYDGGKLADYDAVSYPILRELARSSPEAGIRLISQRSHVLKRDLPKLEVAMSAIFQRNPWFKNTVDSFEIIEDRSRIVHDDVAYLVEFRSVCIHTGVYLNWLLSQCLSLGATVVKRRVNHIKDANLLHSSGSRPDVIVNCSGLFARFLGGVEDKKMYPIRGQVVLVRNSLPFMASFSSTPEKENEDEALYIMTRFDGTSIIGGCFQPNNWSSEPDPSLTHRILSRALDRFPELTKDGPLDIVRECVGHRPGREGGPRVELEKIPGVGFVVHNYGAAGAGYQSSYGMADEAVSYVERALTRPNL |  | 1.9 ± 0.6 | 119 ± 7 | 60000 ± 20000 |  |
| TvDAAO (Trigonopsis variabilis; C108F/E32R/F33D/F54S/M156L) (protein, FAD-containing; no tag mentioned) MAKIVVIGAGVAGLTTALQLLRKGHEVTIVSRDTPGDLSIGYTSPWAGANWLTSYDGGKLADYDAVSYPILRELARSSPEAGIRLISQRSHVLKRDLPKLEVAMSAIFQRNPWFKNTVDSFEIIEDRSRIVHDDVAYLVEFRSVCIHTGVYLNWLLSQCLSLGATVVKRRVNHIKDANLLHSSGSRPDVIVNCSGLFARFLGGVEDKKMYPIRGQVVLVRNSLPFMASFSSTPEKENEDEALYIMTRFDGTSIIGGCFQPNNWSSEPDPSLTHRILSRALDRFPELTKDGPLDIVRECVGHRPGREGGPRVELEKIPGVGFVVHNYGAAGAGYQSSYGMADEAVSYVERALTRPNL |  | 1.6 ± 0.3 | 106 ± 9 | 66000 ± 12000 |  |
| TvDAAO (Trigonopsis variabilis; C108F/E32R/F33D) (protein, FAD-containing; no tag mentioned) MAKIVVIGAGVAGLTTALQLLRKGHEVTIVSRDTPGDLSIGYTSPWAGANWLTFYDGGKLADYDAVSYPILRELARSSPEAGIRLISQRSHVLKRDLPKLEVAMSAIFQRNPWFKNTVDSFEIIEDRSRIVHDDVAYLVEFRSVCIHTGVYLNWLMSQCLSLGATVVKRRVNHIKDANLLHSSGSRPDVIVNCSGLFARFLGGVEDKKMYPIRGQVVLVRNSLPFMASFSSTPEKENEDEALYIMTRFDGTSIIGGCFQPNNWSSEPDPSLTHRILSRALDRFPELTKDGPLDIVRECVGHRPGREGGPRVELEKIPGVGFVVHNYGAAGAGYQSSYGMADEAVSYVERALTRPNL |  | 1.15 ± 0.08 | 25.5 ± 1.4 | 22000 ± 2000 |  |
| TvDAAO (Trigonopsis variabilis; C108F/C298G/E32R/F33D/F54S/M156L) (protein, FAD-containing; no tag mentioned) MAKIVVIGAGVAGLTTALQLLRKGHEVTIVSRDTPGDLSIGYTSPWAGANWLTSYDGGKLADYDAVSYPILRELARSSPEAGIRLISQRSHVLKRDLPKLEVAMSAIFQRNPWFKNTVDSFEIIEDRSRIVHDDVAYLVEFRSVCIHTGVYLNWLLSQCLSLGATVVKRRVNHIKDANLLHSSGSRPDVIVNCSGLFARFLGGVEDKKMYPIRGQVVLVRNSLPFMASFSSTPEKENEDEALYIMTRFDGTSIIGGCFQPNNWSSEPDPSLTHRILSRALDRFPELTKDGPLDIVREGVGHRPGREGGPRVELEKIPGVGFVVHNYGAAGAGYQSSYGMADEAVSYVERALTRPNL |  | 0.8 ± 0.2 | 65 ± 5 | 79000 ± 15000 |  |
